Source: paper PMC9482650, “Quantitative fragmentomics allow affinity mapping of interactomes” (Nature Communications, 2022)

How the values were obtained:
Experiment in all cases: holdup assay
Parameters in all cases: key: below the threshold = too weak to quantify, mostly under pKd 3.1 to 4
[1] = biological target: T1, PARD3B_1, Q8TEW8
T1 sequence (Q8TEW8 196-299, limits assumed, looked up): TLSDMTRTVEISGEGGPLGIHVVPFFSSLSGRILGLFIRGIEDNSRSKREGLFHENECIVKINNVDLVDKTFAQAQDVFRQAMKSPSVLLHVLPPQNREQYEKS

[2] = biological target: Inadl_1, Q8NI35
Chain of Inadl_1, Q8NI35 (Q8NI35 113-229): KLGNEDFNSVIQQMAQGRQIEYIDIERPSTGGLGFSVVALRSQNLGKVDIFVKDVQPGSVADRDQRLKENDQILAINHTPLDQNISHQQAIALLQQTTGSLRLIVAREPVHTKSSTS

[3] = biological target: T2, DFNB31_3, Q9P202
T2 sequence (Q9P202 811-907, limits assumed, looked up): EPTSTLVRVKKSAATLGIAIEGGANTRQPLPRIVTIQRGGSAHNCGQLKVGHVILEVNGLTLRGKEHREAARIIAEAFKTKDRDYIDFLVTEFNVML

[4] = biological target: DLG2_2, Q15700
[5] = biological target: DLG5_1, Q8TDM6
Chain of DLG5_1, Q8TDM6 (Q8TDM6 617-713): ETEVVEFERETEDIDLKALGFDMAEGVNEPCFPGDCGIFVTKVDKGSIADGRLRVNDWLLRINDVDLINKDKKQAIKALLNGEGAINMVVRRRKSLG

[6] = biological target: GRIP2_6, Q9C0E4
Chain of GRIP2_6, Q9C0E4 (Q9C0E4 648-740): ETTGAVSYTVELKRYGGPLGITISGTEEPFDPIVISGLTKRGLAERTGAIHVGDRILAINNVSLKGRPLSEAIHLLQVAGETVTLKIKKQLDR

[7] = biological target: T3, DFNB31_1, Q9P202
T3 sequence (Q9P202 135-233, limits assumed, looked up): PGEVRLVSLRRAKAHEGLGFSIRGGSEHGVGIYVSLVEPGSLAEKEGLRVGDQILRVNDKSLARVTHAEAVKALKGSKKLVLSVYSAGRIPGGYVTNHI

[8] = biological target: GRIP2_5, Q9C0E4
Chain of GRIP2_5, Q9C0E4 (Q9C0E4 544-642): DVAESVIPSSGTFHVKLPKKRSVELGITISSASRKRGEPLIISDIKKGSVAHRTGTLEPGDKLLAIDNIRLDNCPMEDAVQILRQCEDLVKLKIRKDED

[9] = biological target: NHERF4_1, Q86UT5-2
Chain of NHERF4_1, Q86UT5-2 (Q86UT5 other isoform, or with tags, fused parts or gaps): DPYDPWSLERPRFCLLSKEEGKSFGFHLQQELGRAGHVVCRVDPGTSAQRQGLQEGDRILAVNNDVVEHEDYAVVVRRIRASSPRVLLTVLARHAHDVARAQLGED

[10] = biological target: GOPC, Q9HD26
[11] = biological target: LAP2, Q96RT1
Chain of LAP2, Q96RT1 (Q96RT1 other isoform, or with tags, fused parts or gaps): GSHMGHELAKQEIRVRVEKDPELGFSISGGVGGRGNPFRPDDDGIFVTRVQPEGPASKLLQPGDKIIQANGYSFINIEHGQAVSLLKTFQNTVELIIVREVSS

[12] = biological target: DLG2_3, Q15700
[13] = biological target: HTRA1, Q92743
Chain of HTRA1, Q92743 (Q92743 360-477): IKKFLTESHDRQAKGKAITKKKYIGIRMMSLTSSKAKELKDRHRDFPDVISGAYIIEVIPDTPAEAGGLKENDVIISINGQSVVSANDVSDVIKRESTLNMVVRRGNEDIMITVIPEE

[14] = biological target: Inadl_6, Q8NI35
Chain of Inadl_6, Q8NI35 (Q8NI35 1058-1167): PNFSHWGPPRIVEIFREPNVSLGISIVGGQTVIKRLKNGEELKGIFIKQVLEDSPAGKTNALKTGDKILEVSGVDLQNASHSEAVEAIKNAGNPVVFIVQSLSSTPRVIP

[15] = biological target: T4, MPDZ_5, O75970
T4 sequence (O75970 695-796, limits assumed, looked up): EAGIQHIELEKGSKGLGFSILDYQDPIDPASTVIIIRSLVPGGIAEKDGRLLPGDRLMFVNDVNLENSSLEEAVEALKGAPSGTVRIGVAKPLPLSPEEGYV

[16] = biological target: GRIP2_3, Q9C0E4
Chain of GRIP2_3, Q9C0E4 (Q9C0E4 238-339): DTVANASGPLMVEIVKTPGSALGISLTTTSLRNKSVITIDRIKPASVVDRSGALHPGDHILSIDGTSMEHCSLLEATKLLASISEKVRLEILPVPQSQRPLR

[17] = biological target: GORASP1, Q9BQQ3
Chain of GORASP1, Q9BQQ3 (Q9BQQ3 1-208): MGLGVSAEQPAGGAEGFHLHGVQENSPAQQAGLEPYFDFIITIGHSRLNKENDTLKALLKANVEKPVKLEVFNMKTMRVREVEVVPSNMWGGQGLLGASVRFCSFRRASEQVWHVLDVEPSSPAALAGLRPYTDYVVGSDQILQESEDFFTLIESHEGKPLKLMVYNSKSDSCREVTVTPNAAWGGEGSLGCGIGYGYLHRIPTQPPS

[18] = biological target: T5, APBA2_1, Q99767
T5 sequence (Q99767 563-664, limits assumed, looked up): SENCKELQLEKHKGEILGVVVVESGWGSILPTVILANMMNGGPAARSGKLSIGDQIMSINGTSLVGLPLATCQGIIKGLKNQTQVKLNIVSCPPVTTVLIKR

[19] = biological target: MAGI1_1, Q96QZ7
Chain of MAGI1_1, Q96QZ7 (Q96QZ7 1-106): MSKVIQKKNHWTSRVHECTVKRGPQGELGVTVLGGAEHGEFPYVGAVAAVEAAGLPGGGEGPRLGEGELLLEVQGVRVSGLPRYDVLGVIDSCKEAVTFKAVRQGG

[20] = biological target: T6, RHPN1, Q8TCX5
T6 sequence (Q8TCX5 508-602, limits assumed, looked up): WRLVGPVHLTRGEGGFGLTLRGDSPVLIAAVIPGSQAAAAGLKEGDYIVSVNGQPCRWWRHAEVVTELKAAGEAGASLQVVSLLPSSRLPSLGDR

[21] = biological target: LNX1_3, Q8TBB1
Chain of LNX1_3, Q8TBB1 (Q8TBB1 500-596): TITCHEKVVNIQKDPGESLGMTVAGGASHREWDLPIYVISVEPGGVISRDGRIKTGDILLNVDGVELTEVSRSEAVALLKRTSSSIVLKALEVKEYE

[22] = biological target: T7, SHANK1, Q9Y566
T7 sequence (Q9Y566 658-767, limits assumed, looked up): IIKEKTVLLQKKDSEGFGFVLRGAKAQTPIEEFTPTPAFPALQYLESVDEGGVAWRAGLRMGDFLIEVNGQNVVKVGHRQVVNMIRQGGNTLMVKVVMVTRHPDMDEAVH

[23] = biological target: SCRIB_1, Q14160
Chain of SCRIB_1, Q14160 (Q14160 718-814): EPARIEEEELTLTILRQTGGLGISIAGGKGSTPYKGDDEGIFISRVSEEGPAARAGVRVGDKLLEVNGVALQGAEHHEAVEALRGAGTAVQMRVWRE

[24] = biological target: GRIP2_4, Q9C0E4
Chain of GRIP2_4, Q9C0E4 (Q9C0E4 446-548): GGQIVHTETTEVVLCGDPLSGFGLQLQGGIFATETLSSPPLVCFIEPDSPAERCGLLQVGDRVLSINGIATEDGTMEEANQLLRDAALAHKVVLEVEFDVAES

[25] = biological target: NHERF4_4, Q86UT5
Chain of NHERF4_4, Q86UT5 (Q86UT5 464-550): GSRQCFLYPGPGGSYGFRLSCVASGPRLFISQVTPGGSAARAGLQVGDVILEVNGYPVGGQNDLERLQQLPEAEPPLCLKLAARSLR

[26] = biological target: T8, FRMPD1, Q5SYB0
T8 sequence (Q5SYB0 52-145, limits assumed, looked up): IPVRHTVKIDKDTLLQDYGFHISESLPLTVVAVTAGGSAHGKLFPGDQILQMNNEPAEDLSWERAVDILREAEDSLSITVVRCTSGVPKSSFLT

[27] = biological target: MAST2, Q6P0Q8
Chain of MAST2, Q6P0Q8 (Q6P0Q8 1099-1202): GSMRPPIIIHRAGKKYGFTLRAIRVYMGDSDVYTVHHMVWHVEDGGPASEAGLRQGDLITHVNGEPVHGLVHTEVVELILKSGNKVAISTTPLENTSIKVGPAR

[28] = biological target: T9, TJP3_3, O95049
T9 sequence (O95049 375-456, limits assumed, looked up): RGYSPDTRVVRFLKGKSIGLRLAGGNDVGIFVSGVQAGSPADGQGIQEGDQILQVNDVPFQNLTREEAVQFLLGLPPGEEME

[29] = plain residues with an end cap or a label only (N-terminal biotin on a linker: ttds)
[30] = plain residues with an end cap or a label only (N-terminal biotin on a linker: gsgsgs; C-terminal amide)

For PKTPPTDTSV [KIR3DL3, Q8N743], the pKd [1, 29] was “below the threshold”, the pKd [2, 29] was 3.57 and the pKd [3, 29] was “below the threshold”. The pKd [4, 29] was “below the threshold”, the pKd [5, 29] was “below the threshold” and the pKd [6, 29] was “below the threshold”. For the same binder, the pKd [7, 29] was 3.69, the pKd [8, 29] was “below the threshold” and the pKd [9, 29] was “below the threshold”. The pKd [10, 29] was 3.5, the pKd [11, 29] was “below the threshold” and the pKd [12, 29] was 3.77. The pKd [13, 29] was “below the threshold”, the pKd [14, 29] was “below the threshold” and the pKd [15, 29] was “below the threshold”. The pKd [16, 29] was “below the threshold”, the pKd [17, 29] was “below the threshold” and the pKd [18, 29] was “below the threshold”. For the same binder, the pKd [19, 29] was “below the threshold”, the pKd [20, 29] was “below the threshold” and the pKd [21, 29] was “below the threshold”. For the same binder, the pKd [22, 29] was “below the threshold”, the pKd [23, 29] was 3.69 and the pKd [24, 29] was “below the threshold”. The pKd [25, 29] was “below the threshold”, the pKd [26, 29] was “below the threshold” and the pKd [27, 29] was 4.7. For the same binder, the pKd [28, 29] was “below the threshold”.

TVASEKESVM [SLC1A5, Q15758] was tested, and the pKd [1, 29] was 3.61, the pKd [2, 29] was 3.64 and the pKd [3, 29] was “below the threshold”. For the same binder, the pKd [4, 29] was “below the threshold”, the pKd [5, 29] was “below the threshold” and the pKd [6, 29] was “below the threshold”. The pKd [7, 29] was 3.65, the pKd [8, 29] was “below the threshold” and the pKd [9, 29] was “below the threshold”. The pKd [10, 29] was 3.76, the pKd [11, 29] was “below the threshold” and the pKd [12, 29] was “below the threshold”. The pKd [13, 29] was 3.86, the pKd [14, 29] was “below the threshold” and the pKd [15, 29] was “below the threshold”. The pKd [16, 29] was “below the threshold”, the pKd [17, 29] was “below the threshold” and the pKd [18, 29] was “below the threshold”. The pKd [19, 29] was “below the threshold”, the pKd [20, 29] was 3.67 and the pKd [21, 29] was “below the threshold”. The pKd [22, 29] was “below the threshold”, the pKd [23, 29] was 5.2 and the pKd [24, 29] was “below the threshold”. The pKd [25, 29] was “below the threshold”, the pKd [26, 29] was “below the threshold” and the pKd [27, 29] was 4.61. The pKd [28, 29] was “below the threshold”.

With VLRLQSETSV [VANGL1, Q8TAA9] the pKd [1, 29] was “below the threshold”, the pKd [2, 29] was “below the threshold” and the pKd [3, 29] was “below the threshold”. The pKd [4, 29] was 4.58, the pKd [5, 29] was “below the threshold” and the pKd [6, 29] was “below the threshold”. For the same binder, the pKd [7, 29] was 4.03, the pKd [8, 29] was “below the threshold” and the pKd [9, 29] was “below the threshold”. The pKd [10, 29] was “below the threshold”, the pKd [11, 29] was 4.07 and the pKd [12, 29] was 4.71. The pKd [13, 29] was “below the threshold”, the pKd [14, 29] was “below the threshold” and the pKd [15, 29] was “below the threshold”. The pKd [16, 29] was “below the threshold”, the pKd [17, 29] was “below the threshold” and the pKd [18, 29] was “below the threshold”. The pKd [19, 29] was “below the threshold”, the pKd [20, 29] was 4.37 and the pKd [21, 29] was “below the threshold”. The pKd [22, 29] was 3.77, the pKd [23, 29] was 5.53 and the pKd [24, 29] was “below the threshold”. The pKd [25, 29] was “below the threshold”, the pKd [26, 29] was “below the threshold” and the pKd [27, 29] was 5.56. The pKd [28, 29] was “below the threshold”.

In the case of IYVPEAQTRL [DLGAP4, Q9Y2H0], the pKd [1, 29] is reported as 4.16, the pKd [2, 29] is reported as “below the threshold” and the pKd [3, 29] is reported as “below the threshold”. The pKd [4, 29] was “below the threshold”, the pKd [5, 29] was “below the threshold” and the pKd [6, 29] was “below the threshold”. The pKd [7, 29] was 3.96, the pKd [8, 29] was “below the threshold” and the pKd [9, 29] was 3.65. The pKd [10, 29] was 4.21, the pKd [11, 29] was “below the threshold” and the pKd [12, 29] was “below the threshold”. For the same binder, the pKd [13, 29] was 3.63, the pKd [14, 29] was “below the threshold” and the pKd [15, 29] was “below the threshold”. For the same binder, the pKd [16, 29] was “below the threshold”, the pKd [17, 29] was “below the threshold” and the pKd [18, 29] was “below the threshold”. For the same binder, the pKd [19, 29] was “below the threshold”, the pKd [20, 29] was 4.42 and the pKd [21, 29] was “below the threshold”. For the same binder, the pKd [22, 29] was 5.54, the pKd [23, 29] was 5.3 and the pKd [24, 29] was “below the threshold”. The pKd [25, 29] was “below the threshold”, the pKd [26, 29] was “below the threshold” and the pKd [27, 29] was 6.16. For the same binder, the pKd [28, 29] was “below the threshold”.

For TLSLTDSSVDGIPPYR [AXIN1_int, O15169], the pKd [1, 30] was “below the threshold”, the pKd [2, 30] was “below the threshold” and the pKd [3, 30] was 3.91. The pKd [4, 30] was “below the threshold”, the pKd [5, 30] was “below the threshold” and the pKd [6, 30] was “below the threshold”. For the same binder, the pKd [7, 30] was “below the threshold”, the pKd [8, 30] was “below the threshold” and the pKd [9, 30] was “below the threshold”. For the same binder, the pKd [10, 30] was “below the threshold”, the pKd [11, 30] was “below the threshold” and the pKd [12, 30] was 3.67. The pKd [13, 30] was “below the threshold”, the pKd [14, 30] was “below the threshold” and the pKd [15, 30] was “below the threshold”. The pKd [16, 30] was “below the threshold”, the pKd [17, 30] was “below the threshold” and the pKd [18, 30] was “below the threshold”. The pKd [19, 30] was “below the threshold”, the pKd [20, 30] was “below the threshold” and the pKd [21, 30] was “below the threshold”. For the same binder, the pKd [22, 30] was “below the threshold”, the pKd [23, 30] was “below the threshold” and the pKd [24, 30] was “below the threshold”. The pKd [25, 30] was “below the threshold”, the pKd [26, 30] was “below the threshold” and the pKd [27, 30] was “below the threshold”. For the same binder, the pKd [28, 30] was “below the threshold”.
